Measurements: IntAct's records for PubMed 11743162

B1: Protein BZZ1 (Saccharomyces cerevisiae), P38822 (parent)
chain: MSADLSIGNEIKDSFKETHKWVQNNLKWLKDIEQFYRERAKLEKDYSERLSRLSAEYFNKKSSTSVPISVGDTPTTTPGSIEAAGVVAWNEILSQTDMISKDHDQLSTDFENHVANQLSGLFTKLDMTLSKINGFNNDMVNKKDNIYHELEKAKKDYDEACSTMEMARNRYTKASNDRNKKKLDEKEMEMNKCKNEYLIKINQANRTKDKYYFQDVPEVLDLLQDVNEAKTLFLNDLWLKAASVENDLGANVSKRLQAANSVVKQNKPSLNTAIFIKHNLKNWKEPQDFVYKPSPVWHDDEKFAVPSSLEVEDLRIKLAKAENDYNSLQDKTQNELSKLSTLNKIKHEMKTNEDNINATKFYDTLKEYLNVVSPFTSHETLKLQAEVQIESIQNNVPEEYDLSTDNIDLSKTKKKSGIFSKFKHNILNVDSKPSSGGSTGNGNGGPLHITSLFNTSRRTRLGSAPNNAGEDSDNNSIRTTSTNNTKKTTQNSSDDGKNKVLYAYVQKDDDEITITPGDKISLVARDTGSGWTKINNDTTGETGLVPTTYIRISSAATVKANDRGPAPEVPPPRRSTLPVRTMEAIYAYEAQGDDEISIDPGDIITVIRGDDGSGWTYGECDGLKGLFPTSYCK
B2: High osmolarity signaling protein SHO1 (Saccharomyces cerevisiae), P40073 (parent)
chain: MSISSKIRPTPRKPSRMATDHSFKMKKFYADPFAISSISLAIVSWVIAIGGSISSASTNESFPRFTWWGIVYQFLIICSLMLFYCFDLVDHYRIFITTSIAVAFVYNTNSATNLVYADGPKKAAASAGVILLSIINLIWILYYGGDNASPTNRWIDSFSIKGIRPSPLENSLHRARRRGNRNTTPYQNNVYNDAIRDSGYATQFDGYPQQQPSHTNYVSSTALAGFENTQPNTSEAVNLHLNTLQQRINSASNAKETNDNSNNQTNTNIGNTFDTDFSNGNTETTMGDTLGLYSDIGDDNFIYKAKALYPYDADDDDAYEISFEQNEILQVSDIEGRWWKARRANGETGIIPSNYVQLIDGPEEMHR
B3: Protein BZZ1 (Saccharomyces cerevisiae), P38822 (parent)
chain: B1 chain
partner: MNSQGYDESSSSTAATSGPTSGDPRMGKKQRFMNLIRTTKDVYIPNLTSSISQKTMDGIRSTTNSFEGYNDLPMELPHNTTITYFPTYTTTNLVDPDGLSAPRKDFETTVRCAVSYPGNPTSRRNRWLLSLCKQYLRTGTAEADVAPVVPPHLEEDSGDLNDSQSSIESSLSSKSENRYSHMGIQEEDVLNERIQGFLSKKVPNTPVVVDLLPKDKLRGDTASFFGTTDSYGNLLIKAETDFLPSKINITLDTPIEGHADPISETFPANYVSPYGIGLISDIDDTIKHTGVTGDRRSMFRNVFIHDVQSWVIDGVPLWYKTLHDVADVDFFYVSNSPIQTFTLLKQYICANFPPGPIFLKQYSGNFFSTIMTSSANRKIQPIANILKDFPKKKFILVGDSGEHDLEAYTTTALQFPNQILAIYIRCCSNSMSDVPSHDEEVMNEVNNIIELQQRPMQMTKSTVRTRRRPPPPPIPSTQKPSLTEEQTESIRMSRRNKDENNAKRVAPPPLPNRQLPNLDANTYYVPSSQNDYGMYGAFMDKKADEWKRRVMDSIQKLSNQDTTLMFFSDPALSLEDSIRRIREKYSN

Variants of: B1
Conditions: with las17_yeast LAS17, Q12446
Target sequence in this assay (Q12446 whole entry): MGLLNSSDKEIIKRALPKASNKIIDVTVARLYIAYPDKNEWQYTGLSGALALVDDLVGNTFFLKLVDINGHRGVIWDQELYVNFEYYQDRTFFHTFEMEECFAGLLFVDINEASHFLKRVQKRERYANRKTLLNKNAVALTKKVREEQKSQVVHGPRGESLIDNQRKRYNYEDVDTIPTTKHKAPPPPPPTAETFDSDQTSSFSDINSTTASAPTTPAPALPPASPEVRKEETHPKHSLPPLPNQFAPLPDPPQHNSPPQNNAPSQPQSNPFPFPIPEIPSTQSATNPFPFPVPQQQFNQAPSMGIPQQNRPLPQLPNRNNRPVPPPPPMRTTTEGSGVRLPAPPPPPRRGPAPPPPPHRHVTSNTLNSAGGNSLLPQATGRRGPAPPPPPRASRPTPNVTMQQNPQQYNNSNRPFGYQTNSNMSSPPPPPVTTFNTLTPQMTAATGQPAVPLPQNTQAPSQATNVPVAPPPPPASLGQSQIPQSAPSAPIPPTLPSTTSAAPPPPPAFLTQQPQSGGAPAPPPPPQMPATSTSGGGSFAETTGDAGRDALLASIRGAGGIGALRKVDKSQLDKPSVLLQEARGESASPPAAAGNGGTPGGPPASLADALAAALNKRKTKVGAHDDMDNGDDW

Row | Variant | effect of a mutation on the interaction
1 | W531S;W615S | decreasing interaction
2 | W531S | decreasing interaction
3 | W615S | decreasing interaction

Variants of: B2
Conditions: with las17_yeast LAS17, Q12446
Target sequence in this assay (Q12446 whole entry): as above

Row | Variant | effect of a mutation on the interaction
4 | P352A | decreasing interaction

Variants of: B3
Conditions: with app1_yeast APP1, P53933

Row | Variant | effect of a mutation on the interaction
5 | W531S;W615S | decreasing interaction
